For assay [1], the system named is endothelial cells (HUVECs). Kind of assay: Cellular internalization by fluorescence microscopy, HUVECs. It is filed as cell-based, human. Particulars: 1 h exposure, imaged 24 h. The method, then:
(§1) FIG. 18 includes images showing the cellular internalization of SynB1-ELP delivered NOX peptide. Rhodamine-labeled SynB1-ELP-NOX was exposed to cells for 1 h, cells were washed, fresh media was returned, and images were collected 24 h after initial exposure.
(§2) It is confirmed that the SynB1-ELP-NOX polypeptide was internalized by cells. Both endothelial cells (HUVECs) and chorionic cells (BeWo choriocarcinoma cells) were exposed to fluorescently labeled SynB1-ELP-NOX for 1 h. The cells were then washed and given fresh media for 24 h.

For assay [2], the system named is BeWo choriocarcinoma cells. The assay can be described thus: Cellular internalization by fluorescence microscopy, BeWo cells. The note with it: 1 h exposure, imaged 24 h. It is filed as cell-based. On the procedure: as §1, §2
In assay [3] the test system is placental chorionic villous explants. The assay can be described thus: ROS production in placental chorionic villous explants, dihydroethidium (DHE) assay. Type of assay: cell-based, rat. Particulars: 20 or 50 μM, 1% O2, 48 h. On the procedure: FIG. 19 includes a graph showing inhibition of reactive oxygen species production of placental villous explants. Villous explants were dissected from rat placentas at day 19 of gestation. Explants were grown ex vivo on a bed of Matrigel in cell culture medium. 24 h after equilibration of explants, media was replaced with media plus SynB1-ELP or SynB1-ELP-NOX, and explants were incubated at 37° C. in a 6% or 1% O2 environment for 48 h. ROS was detected by incubation with 5 μM dihydroethdium for 1 hour, and fluorescence was measured using a florescence plate reader. The assay was performed in triplicate, and data represent the mean±s.e. of three independent experiments each performed with 4 explants per treatment group. *p<0.01, one way ANOVA with post-hoc Bonferonni multiple comparison.
Chorionic villous explants were cut on GD19 and cultured ex vivo on Matrigel coated wells with complete cell culture medium. After equilibration, culture medium was replaced with medium containing SynB1-ELP-NOX or the SynB1-ELP control polypeptides at 20 or 50 μM, and explants were incubated at 6% O2 (representing a healthy placenta) or 1% O2 (representing a preeclamptic placenta). After 48 h exposure to hypoxia, detection of ROS was performed using the dihydroethidium (DHE) assay.

The record followed here is patent US10081667B2, “Composition and method for therapeutic agent delivery during pregnancy” (University of Mississippi Medical Center, priority 2013, dated 2018).

B1: SynB1-ELP-NOX: SynB1 peptide fused to the N-terminus of ELP (SEQ ID NO: 4), NOX peptide at the C-terminus; SEQ ID NO: 16 (protein)
chain: MRGGRLSYSRRRFSTSTGRGCGPGVGVPGAGVPGGGVPGAGVPGGGVPGAGVPGGGVPGAGVPGGGVPGAGVPGGGVPGAGVPGGGVPGAGVPGGGVPGAGVPGVGVPGAGVPGGGVPGAGVPGGGVPGAGVPGGGVPGAGVPGGGVPGAGVPGGGVPGAGVPGGGVPGAGVPGGGVPGAGVPGVGVPGAGVPGGGVPGAGVPGGGVPGAGVPGGGVPGAGVPGGGVPGAGVPGGGVPGAGVPGGGVPGAGVPGGGVPGAGVPGVGVPGAGVPGGGVPGAGVPGGGVPGAGVPGGGVPGAGVPGGGVPGAGVPGGGVPGAGVPGGGVPGAGVPGGGVPGAGVPGVGVPGAGVPGGGVPGAGVPGGGVPGAGVPGGGVPGAGVPGGGVPGAGVPGGGVPGAGVPGGGVPGAGVPGGGVPGAGVPGVGVPGAGVPGGGVPGAGVPGGGVPGAGVPGGGVPGAGVPGGGVPGAGVPGGGVPGAGVPGGGVPGAGVPGGGVPGAGVPGVGVPGAGVPGGGVPGAGVPGGGVPGAGVPGGGVPGAGVPGGGVPGAGVPGGGVPGAGVPGGGVPGAGVPGGGVPGAGVPGVGVPGAGVPGGGVPGAGVPGGGVPGAGVPGGGVPGAGVPGGGVPGAGVPGGGVPGAGVPGGGVPGAGVPGGGVPGAGVPGVGVPGAGVPGGGVPGAGVPGGGVPGAGVPGGGVPGAGVPGGGVPGAGVPGGGVPGAGVPGGGVPGAGVPGGGVPGAGVPGVGVPGAGVPGGGVPGAGVPGGGVPGAGVPGGGVPGAGVPGGGVPGAGVPGGGVPGAGVPGGGVPGAGVPGGGVPGAGVPGWPGSGGCSTRIRRQL
modifications: synthetic SynB1-ELP-NOX sequence
Consider B1, for which the “internalization in HUVECs” value in assay [1] is “detectable in a punctate cytoplasmic distribution in both cell lines”. Further, the “internalization in BeWo cells” value in assay [2] is reported as “detectable in a punctate cytoplasmic distribution in both cell lines”. Further, the “ROS production of hypoxic explants” value in assay [3] is reported as “inhibited this ROS production”.
